Source: patent US20260285970 (published 2026)

What was measured:
Experiment in all cases: ELISA
IL-17 = target: IL-17
IL-2 = IL-2 (UniProt P60568)
BSA = BSA (bovine, UniProt P02769)
IL-4 = target: T1, IL-4 (UniProt P05112)
T1 chain: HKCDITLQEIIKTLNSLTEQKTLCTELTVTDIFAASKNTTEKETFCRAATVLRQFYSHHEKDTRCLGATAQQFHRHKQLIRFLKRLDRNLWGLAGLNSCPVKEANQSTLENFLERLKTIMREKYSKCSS

Measured: binding result

IL-17, sequence (chain, as listed by the source): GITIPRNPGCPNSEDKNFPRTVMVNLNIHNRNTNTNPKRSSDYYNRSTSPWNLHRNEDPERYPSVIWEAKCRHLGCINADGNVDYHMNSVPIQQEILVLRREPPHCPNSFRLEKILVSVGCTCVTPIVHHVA
IL-2, sequence (P60568 21-153): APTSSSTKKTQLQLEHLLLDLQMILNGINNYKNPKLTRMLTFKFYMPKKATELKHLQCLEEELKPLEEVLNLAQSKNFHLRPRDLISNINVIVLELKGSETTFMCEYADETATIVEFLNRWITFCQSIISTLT
BSA, sequence (P02769 25-607): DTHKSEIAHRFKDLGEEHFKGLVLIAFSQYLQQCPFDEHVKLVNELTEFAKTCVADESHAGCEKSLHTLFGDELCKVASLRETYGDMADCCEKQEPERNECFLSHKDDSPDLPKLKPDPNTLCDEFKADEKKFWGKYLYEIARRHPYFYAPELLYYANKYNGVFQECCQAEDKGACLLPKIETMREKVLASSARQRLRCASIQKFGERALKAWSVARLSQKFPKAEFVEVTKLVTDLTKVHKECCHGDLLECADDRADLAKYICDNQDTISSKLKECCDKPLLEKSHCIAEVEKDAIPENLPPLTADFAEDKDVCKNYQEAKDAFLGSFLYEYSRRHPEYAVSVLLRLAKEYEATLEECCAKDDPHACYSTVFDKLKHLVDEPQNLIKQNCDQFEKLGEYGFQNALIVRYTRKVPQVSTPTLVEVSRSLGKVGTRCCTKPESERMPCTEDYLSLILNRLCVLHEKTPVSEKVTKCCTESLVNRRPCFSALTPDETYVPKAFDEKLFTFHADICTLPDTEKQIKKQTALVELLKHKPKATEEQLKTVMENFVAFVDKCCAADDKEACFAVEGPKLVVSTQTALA

B1: BDG33.025 (antibody, V domains shown)
VH: QMQLVESGGGVVQPGRSLRLSCAASGFTFRTYGMHWVRQAPGKGLEWVADIWYDGSNKHYADSVKGRFTITRDNSKNTLNLQMNSLRAEDTAVYYCARAPQWYLVAEPFDLWGQGTMVTVSS
VL: SYVLTQPPSVSVAPGQTARITCGGNLIGSKLVHWYQQKPGQAPVLVVYDDSDRPSLIPERFSGSNSGNTATLTISRVEAGDEADYYCQVWDSSSDGVVFGGGTKLTVL
no binding: IL-17 | IL-2

B2: BDG33.023 (antibody, V domains shown)
VH: QMQLVESGGGVVQPGRSLRLSCAASGFAFRTYGMHWVRQAPGKGLEWVAVIWYDGSNTHYADSVKGRFTITRDNSKNTLNLQMNSLRAEDTAVYYCARAPQWYLSAEAFDLWGQGTMVTVSS
VL: SYVLTQPPSVSVAPGQTARITCGGNLIGSKLVHWYQQKPGQAPVLVVYDDSDRPSRIPERFSGSNSGNTATLTISRVEAGDEADYYCQVWDHSSDHVVFGGGTKLTVL
no binding: all assays above
